Assays:
[1] = tested on: DAP12 mutant P19
[2] = tested on: DAP12 mutant P17
[3] = tested on: DAP12 mutant P23
Chain of DAP12 mutant P23 (chain, as listed by the source mutant): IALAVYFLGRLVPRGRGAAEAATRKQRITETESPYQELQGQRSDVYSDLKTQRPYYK

Chain of DAP12 mutant P19 (chain, as listed by the source mutant): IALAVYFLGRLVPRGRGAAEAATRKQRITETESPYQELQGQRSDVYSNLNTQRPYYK
Chain of DAP12 mutant P17 (chain, as listed by the source mutant): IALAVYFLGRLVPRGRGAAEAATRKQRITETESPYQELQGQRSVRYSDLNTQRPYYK

## Syk
[1]
  tyrosine phosphorylation of Syk (IP of Syk, western blot with pan-phospho-tyrosine antibody 4G10): P17, P19 and P23 were able to induce tyrosine phosphorylation of Syk
[2]
  tyrosine phosphorylation of Syk (IP of Syk, western blot with pan-phospho-tyrosine antibody 4G10): P17, P19 and P23 were able to induce tyrosine phosphorylation of Syk
[3]
  tyrosine phosphorylation of Syk (IP of Syk, western blot with pan-phospho-tyrosine antibody 4G10): P17, P19 and P23 were able to induce tyrosine phosphorylation of Syk
